Test results published in the DeepSol protein solubility set.

Experiment: soluble on expression in E. coli; label from the status in PepcDB or PDB records

With “MAHHHHHHMAVESRSRVTSKLVKAHRAMLNSVTQEDLKVDRLPGADYPNPSKKYSSRTEFRDKTDYIMYNPRPRDEPSSENPVSVSPLLCELAAARSRIHFNPTETTIGIVTCGGICPGLNDVIRSITLTGINVYNVKRVIGFRFGYWGLSKKGSQTAIELHRGRVTNIHHYGGTILGSSRGPQDPKEMVDTLERLGVNILFTVGGDGTQRGALVISQEAKRRGVDISVFGVPKTIDNDLSFSHRTFGFQTAVEKAVQAIRAAYAEAVSANYGVGVVKLMGRDSGFIAAQAAVASAQANICLVPENPISEQEVMSLLERRFCHSRSCVIIVAEGFGQDWGRGSGGYDASGNKKLIDIGVILTEKVKAFLKANKSRYPDSTVKYIDPSYMIRACPPSANDALFCATLATLAVHEAMAGATGCIIAMRHNNYILVPIKVATSVRRVLDLRGQLWRQVREITVDLGSDVRLARKLEIRRELEAINRNRDRLHEELAKL” as the sequence, how does the “soluble on expression in E. coli” value read?
Its value is “not soluble”.

Which “soluble on expression in E. coli” value does the source give for “MAHHHHHHMAYLPPNMAERLQMSSSSTEPTTTSSMLPAPHSSANMRHIEGLVVVPGVVKVSRSDVASQYTMPHTNNAPLLFSEPEHRAVDNSSGSNDAQLEPKDPHLGLMPHCLSCTLLTSAGAQEPDDVYGRSMPSSSAVGAVTTELECAVVPTLHASFTPGVSTSIMPAPTEAHSACGSRPLQQPRWGGNYDSGSQCVSFRGADRSNNVSGCGLRLVGDDVEWLQGSFEDSASSPREEVQLSWGHLQRQPCAGKSSAARAVPPALHDVREGTGGEKVLAAHHRFERAVQPQTQRQGVFPSADQENCQAAAMLWAAQQMAVFD” here?
Its value is “not soluble”.

Which “soluble on expression in E. coli” value does the source give for “MAHHHHHHMCGVIEGLWTRGGRVFHRYVRPSDPRRISAAAAAVHGITWETVQNCSPWPVVARELVAYMALVGADAPVSASAQLEAAQLGGQRAVHLPPLVAHNASFDARFLEHHLRRCGYQIFWHPRYPLTCTRQWAQVAYPHLANNLDALCAFLSIDWAADRAANGHDALTDATLTALLFLQMCRRWMERFGRGE” here?
Its value is “not soluble”.

With “MAHHHHHHMCREPYLLLSMHRLLLAAYWPDSDRLHCSEREWPLTEHSGAVPFMVESANGRVLPWCPWRDNSVAELLAVVRGMMELAGMKLGIVVGDRLVPD” as the sequence, how does the “soluble on expression in E. coli” value read?
The value was “soluble”.

For “MAHHHHHHMDDFPLSLCSSNIRETMFKVTAPLFLALTTSNAIALSRGTSVSVSSEGGKCNEIWYSNGKEMCGSPLAPQSSTVQRALPPAPAPAKKPESSLRSGDEVATQHEERGGLDLRSIASRQPSFDALSATINGERQVGRASGTAIRGGNEGSAEPSSDEGQQRTTELWSGQAEGQVKQMAEGEQRNPGSGDEGQNQGGDVAPLQVAKEGESNMKWPPAQRVILGTVKENAQKETRKDLDDLEQEANSTQVGRTTAHKRHVMLITATLSFICVQRLLV”, which “soluble on expression in E. coli” value is on record?
The value was “soluble”.

For “MAHHHHHHMDFVKELKSSQDYMNNELTYGAHNYDPIPVVLKRGKGVFVYDIEDRRYYDFLSAYSSVNQGHCHPDILNAMINQAKKLTICSRAFFSDSLGVCERYLTNLFGYDKVLMMNTGAEASETAYKLCRKWGYEVKKIPENSAKIIVCNNNFSGRTLGCVSASTDKKCKNNFGPFVPNFLKVPYDDLEALEKELQDPNVCAFIVEPVQGEAGVIVPSDSYFPGVASLCKKYNVLFVADEVQTGLGRTGKLLCTHHYGVKPDVILLGKALSGGHYPISAILANDDVMLVLKPGEHGSTYGGNPLAAAICVEALKVLINEKLCENADKLGAPFLQNLKEQLKDSKVVREVRGKGLLCAIEFKNDLVNVWDICLKFKENGLITRSVHDKTVRLTPPLCITKEQLDECTEIIVKTVKFFDDNL”, which “soluble on expression in E. coli” value is on record?
The value was “soluble”.

For “MAHHHHHHMDSQGPFLVIPTKRGAVPTLTPAQANAILEPSERILATSVFEAMDFVKPCIEAGMQLSTYCGLSGYKTVLTLRSSFQGLHASASSSDTAVAGDNERGRAVISFEKWRDVVKATRPTFAVAVHESLPLCEPLNKRRRVAATRSETWLANTEEASDLGCTILPSISAGCTHDGGYIDAVPRGENSYEFFQTLQALQLSPKKCTMCVAPSISVLLAAMVSNVSLLECPLPWTLAEKGVALLLPLEEATTTSPEPVVPLLDLNDNVYALDINPIAEGCDCFTCKRHCRAYLHHLLTVQEMNSDILLVMHNLAQVVLLVRAYRCASAPTREALVSRVASAL”, which “soluble on expression in E. coli” value is on record?
The value was “not soluble”.

With “MAHHHHHHMDWVKVMNLIYASRDVDATTLAFNAAMSAVEKKGCLKSMLEVFEIMKKKNIKPDLVSYKLLLRLCANYHLGEHAEILFDEMVETDKLTPTYEIYALMISCFAKVGDGHRAVEFVEKLRSDPLVGEVNNWGEAGGVSGSGSADDRQHPAWRDSFAEEATTEEGAEAEGSTYTNQFKEITKKIKHIERGSSKIQYSEYANVIFACNMSNLPEQGIKYFEELLNTGKYMPSTLLLESIFDLLAKNGNYEKCLDYYNKLKDDPNFKKAINVNILNNILKALSVQGKINIIEDLWKNEFDELMLTPNEISYGYMLKVYSIVDDYEKAFKLFKEMQMKKMLSNKNIIPFVYTINAFKNCGIYNYAIYVLRVAKLLGVSSEDLLKLYNDAMVACVNAKKYDVVISLYAELITMQEKGAPSLEISISTLGFVLLAFRELDMREDFTNLKNLIIQKNYKLTPLCGQLVSEQPH” as the sequence, how does the “soluble on expression in E. coli” value read?
Its value is “not soluble”.

With “MAHHHHHHMEKKKKESTIKISLNINTKFNESYLDEQNDIINEALIKNNNKEIIHSLNLIENIRQGTFDYKDLREVYFMNDNDLFSMLNDKKASEEKGKGKEDAHNNNNIDNKICNNDKVGDKNKKLSNNNNNNGNDLNIQIEGDQNYNFNKNNETNIFVLDNDVDKVCIIRFPFSVSKDIKKYLLNKNLDMVIQPTTLLNSRFFLIHFKNINKKFHGILLELSTHIEIHKTLDRNNLYKSNDVSQMIYVYEHNTNSKELLKKFINNNFELCGGISKKLNHFIFQNHTKLFKYHDIYFAEKLIYEYLNTPYYDYFDLYVKTLNEMHNHIIMEKENNNKQNEIVDETTDLAAILGSLDNSYNIMNLIEKQDGDIDFEALLNYDIEKENYESDVSDLLLGGTYYLQKK” as the sequence, how does the “soluble on expression in E. coli” value read?
Its value is “not soluble”.

Which “soluble on expression in E. coli” value does the source give for “MAHHHHHHMEMGGDIVGNIMMLELETFSDEEAAYLTSPDAPHSHIVDEVVEALFENVCTAPRRCSWNTPSVRPEWKEEFRFAGEWWLSMRVLPATVNPNEYHPPLIPFLLRNVQTENQFIADLALHMRQRSSVLSLLHMDHISITPDRASVLLFEGILRNEAQNLECLSLSFCEVGAATLLLILCGLNQCRSIQPQLRYLNLSYNWIDASCSNMMAMLLERTSIRRLSLHGNRFGGSDITSFYDFLLQGCSLLEELDLSYTALTCAEVCALISCLPRMRNLEVLLLDGVEVPDNKAAALSTAIRKSNLIHVSLKGIIACNGEAYLHRIHKACQRNRAARDFLKDRSTLRYFSEGGSFFEAFARRTCEMQRLDDRALPVTYRPFVTNDPSLLPAKNL” here?
Its value is “not soluble”.

Which “soluble on expression in E. coli” value does the source give for “MAHHHHHHMEMHATHVAACSLRRLRSSAVTSRVMTSTHLSLPCRLKSYVLKFLRGQLPEDLKDLNGALGCLYGTLPDVDEFGQFVIAPEIVERFHQLGYIKLPRPVLDAQQVDKLADEVNELANNVEHHPKTEKLYATSLANLTEGPLFYCQGQWRAAWGMHDLIYLPTITVAASQILGNSIVRLWYDEVFMKEARKGPCVPWQQNYARWQHTTPVNHVTVMIALDTMNKDRGAPCLVPGSHRWREGGLLPSVPYDPAKDEAQQLNTIWEITNEEESEMLMDTPPATVDMKRGEALLIHPLTLFATHGNRSLDAVRCCFIHYMGGKTYATQNGPLLPHTTQFQAGAMIQGPFYPVVFDPAMTEELAMLPGESAAQKDITEEV” here?
The value was “soluble”.

For “MAHHHHHHMENIENIENIEKIHLTDDGGVIKTILRKGNEGEENVPKKGNEVTVHYIGKLESDGSIFDSSRQRDVPFKFHLGNGEVIKGWDICVASMKKNEKCLVRLDSKYGYGKEGCGETIPGNSVLIFEIELLSFKEAKKNIYDYTDEEKIQAAFELKDEGNEFFKKNEINEAIAKYKEALDYFMHTDEWEDELLEKKKNIQIICNLNLSTCYNKNKDYPNAIEHASKVLKLDKNNVKGLYKLGVANMNFGFLEEAKINLYKAASLNPKNLDIRNSYELCIAKLKEARKKDQITFG”, which “soluble on expression in E. coli” value is on record?
Its value is “soluble”.

With “MAHHHHHHMENVAKLQRQNASLKDRVSALEEQLAGATSSLARTGDCEQQISLLIERLGKEKERHKAVAEERNQLKDHLQDLEEEVEEYRTREEGWISGQERQQENEIAAQQRIAQLENDMRSCNAIVDNLTTQLTEAKHLNGVLQNQVKELKVSYSAQLDTVKESSSETVDQLRQEVEQLRSSLQNLSTEYDTRTAELEREVQNANMHAHQAEARLSEMALGSVNTLQDLRSELEDSQRSSATWKAEAQKARHEYTTLLEQYASLKRSRAAAEADLRDRLSYESNTVSALRKGIREWEDRYLALQESVGATQTEIEEQRKTIMQLEATIQKLKASGSDMLSPSQSEVVVSTNAPPVKASFSEPSLSGLPLDEILGRRLMPAPPLNPFMSMERPAWSDSRDRKTRERLEQEVVRQSAELERVRAAVADAEVWKAKYDRLQEEHDLLLQLYGQLEEDVSALRKNGAGILSADAAATSSTSGSVSAAAVP” as the sequence, how does the “soluble on expression in E. coli” value read?
The value was “soluble”.

With “MAHHHHHHMFFRTCCRLMVRPTALQRCKSVNSVTLVGVVHDIQSGFVYEDAVTQFTLTTTSIDTTHPTQEVVVEKDHHTIRCFGELFSAEVKQKVKEGNVVCVNGRLRLSPQLEPSCNKHFYFPYIQVQPPHGQVAVIHGDRRNTPASVNPTAEEIPAESESGTTSKTS” as the sequence, how does the “soluble on expression in E. coli” value read?
The value was “not soluble”.

With “MAHHHHHHMFHGFPDVQIAPRDTVISEEFHLHDKEGRMGTLLQPMAQRMRISFSALTCLGSYAQNATCHYALFGRLCGVQLNETIEVTNVLPPVINPRPPEDETPEQREKRLLAQQREERQMYERMGKMFFKEELDSYHVGYFAICSAYTNAPYSVRTVQQLAQLALDGNPSVLVVYDPFRTSLMGKLYLRAFVPTREYVEFYTRLTDKRNILRENRLMRECNVGKGGVLREVKVEVDVDEYQLLCLSGFNVAPLSSTCRTLHSEVMTDYMAALIESVRHNADELSRGLHSESYFSQKEESYGPLGQRIDTLLKLMQLREQTQHLESLCDGVLLNTSLLRDL” as the sequence, how does the “soluble on expression in E. coli” value read?
The value was “soluble”.

For “MAHHHHHHMFSPVYEDVSGLFGHPMPISGFGPSTELQFPQTSYMTTTTNAPQTPTQQQQQQLAGRATVYSLVDASGVQLHRQAAPPQQIPMSSVPFGAFDGASIVPYEVFMQHQQQQQLAAAGKPTAVHAQDGVKYYLSSSTGAPVMASAGPAATTQANIMQMQQHGGTLYTLESNGTTTALTSTPPAGGLFSGAAAANGAPPSGEYPFYAAATGFLSSGPLGMAPATVGSASVTPYAIQGHMPSASPRARGAVNRSPAATIAGNQHHSNSGNNSSSASTRRENQATLHEM”, which “soluble on expression in E. coli” value is on record?
The value was “not soluble”.

Which “soluble on expression in E. coli” value does the source give for “MAHHHHHHMFYMFLTRNDHQDRRRESPPPTPKKHGASFLRRIHLGEFSGRTICISWETLVEKHEWRDCAKETLLALSSNMIVYLMCHISNANEKGKVLSMVKDIPQLARHNILFCETEKGYEAFSRQIKPAILVTHDSAQAEFLSLVLPNVVLVGSSATGSAMTSISSLSELLF” here?
Its value is “not soluble”.

For “MAHHHHHHMGDDCETELVEVFGFISSGREDVRKMAVQGLAQQSKDNKELFALIASSAHGPRCIDVLLQFLHAGSVALLGDVLTVLINCAADGTCTEVLVTQKVVRRAMRLIDSVEASDHPQSLQRGLEEMTLMLLSNLTASHVSAVDDLLQVTDEDLRGFYLGKLLTYYTRFTVDDGCSVEVAVAGEQQQEDGGDDNKKLSEGDAVRSNSGGNKSEELNKTVPRDLQRWILQILLNVTRVADGQELLLEDDDWLMALSDCLSSLNPRHRLLAAQCFRNCSFQRERHPGILRSRCLRVCVERLSDGAEHIGEIEMLLAEITANLMQTEAGIGLLEELNAKKHLQASVTAGKVQADTCKFLNEHVLPLLDDIVDAYVMTSGDELD”, which “soluble on expression in E. coli” value is on record?
The value was “not soluble”.

For “MAHHHHHHMGLLNTKPCSLIPAKEAFEREKKIYDKAILSFDGVNGYDVYNCSVPFTYDGKTYIFGRVEKKDEWVHSNSILFEKVGENRYRRHPTSITYNLEDPFVVKIHGEMVLGGTHVTKNGGKVSDYRCEFYHGTPLNLKYFSSGPSKMKDIRLVELADGKIGVFTHFRTEGSCLTGFATIDKIEDLTVEVINSAKLINHRPFGDAWGGPSQVYLLSSGLLGCISHHGYLLDQKDDIQLRIYACTSFVFDPATYDVYNFKIIGTKGCFPPCEPKLPHLADCAFVSGIEMRDDGKCNLYSGIGDVAEGCIVIDYPFEGYGKIVSDVAF”, which “soluble on expression in E. coli” value is on record?
The value was “soluble”.
